Measured values from article PMC314469, “Protein Interaction Networks by Proteome Peptide Scanning” (PLoS Biology, 2004).

T1: Yfr024 SH3 (LSB3_YEAST), P43603
T1 chain: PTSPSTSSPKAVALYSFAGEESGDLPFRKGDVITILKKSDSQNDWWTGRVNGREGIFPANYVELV

T2: Yhr016c SH3 (YSC84_YEAST), P32793
T2 chain: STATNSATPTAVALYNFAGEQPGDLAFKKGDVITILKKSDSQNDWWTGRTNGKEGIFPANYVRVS

T3: Boi1 SH3 (BOI1_YEAST), P38041
T3 chain: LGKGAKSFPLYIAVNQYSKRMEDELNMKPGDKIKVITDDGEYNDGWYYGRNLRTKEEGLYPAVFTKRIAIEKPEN

T4: Rvs167 SH3 (RV167_YEAST), P39743
T4 chain: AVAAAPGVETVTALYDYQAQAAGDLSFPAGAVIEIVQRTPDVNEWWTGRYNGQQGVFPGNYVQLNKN

T5: Boi2 SH3 (BOI2_YEAST), P39969
T5 chain: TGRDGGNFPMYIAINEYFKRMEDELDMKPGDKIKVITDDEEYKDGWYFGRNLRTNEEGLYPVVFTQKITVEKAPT

T6: Myo5 SH3 (MYO5_YEAST), Q04439
T6 chain: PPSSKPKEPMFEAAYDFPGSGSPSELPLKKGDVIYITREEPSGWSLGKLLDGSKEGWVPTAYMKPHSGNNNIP


Key:
Assay in all cases: SPOT array
[1] = molecular target: T1, Yfr024 SH3 (LSB3_YEAST), P43603
[2] = molecular target: T2, Yhr016c SH3 (YSC84_YEAST), P32793
[3] = molecular target: T3, Boi1 SH3 (BOI1_YEAST), P38041
[4] = molecular target: T4, Rvs167 SH3 (RV167_YEAST), P39743
[5] = molecular target: Sho1 SH3 (SHO1_YEAST), P40073
[6] = molecular target: T5, Boi2 SH3 (BOI2_YEAST), P39969
[7] = molecular target: T6, Myo5 SH3 (MYO5_YEAST), Q04439

Sho1 SH3 (SHO1_YEAST), P40073, sequence (P40073 295-366): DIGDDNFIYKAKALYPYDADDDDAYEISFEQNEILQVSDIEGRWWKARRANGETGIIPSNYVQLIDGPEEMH

Binder | normalised SPOT signal, Boehringer light units (BLU); mean over the file's lines of this peptide [1] | normalised SPOT signal, Boehringer light units (BLU); mean over the file's lines of this peptide [2] | normalised SPOT signal, Boehringer light units (BLU); mean over the file's lines of this peptide [3] | normalised SPOT signal, Boehringer light units (BLU); mean over the file's lines of this peptide [4] | normalised SPOT signal, Boehringer light units (BLU); mean over the file's lines of this peptide [5] | normalised SPOT signal, Boehringer light units (BLU); mean over the file's lines of this peptide [6] | normalised SPOT signal, Boehringer light units (BLU); mean over the file's lines of this peptide [7]
GQIDRDKPSEPERT [YJL184W 45-58] | 68.7 | 37.9 | 15 | 47.7 | 43.8 | 21 | 100
GQQKRFSPSLPSAV [YKL088W 110-123] | 697 | 140 | 1200 | 111 | 47.2 | 9.3 | 728
GRHLKNIPRIPIFS [YLR106C 2506-2519] | 947 | 69.5 | 702 | 176 | 198 | 6.1 | 1040
GRSLRKRPTSPSIS [YJR059W 48-61] | 440 | 106 | 370 | 1120 | 44.9 | 119 | 820
GSLVKTKPTLPLTK [YLR339C 59-72] | 509 | 82.1 | 907 | 21.1 | 22.8 | 25.5 | 422
GSQWKNHPDWPFWV [YLR057W 726-739] | 69.9 | 18.7 | 133 | 46.8 | 14.5 | 9.6 | 108
GSYIKRTPKIPEKD [YDR026C 219-232] | 436 | 52 | 129 | 153 | 554 | 32.5 | 206
GTGRRRSPSTPIMP [YNR047W 192-205] | 802 | 24 | 625 | 92.4 | 52.3 | 52 | 921
GTRPKILPKIPTGA [YOR227W 1148-1161] | 432 | 31.6 | 148 | 22.1 | 11800 | 27.1 | 773
GTTNRGPPPLPPRA [YLR144C 18-31] | 43600 | 69100 | 49900 | 88000 | 626 | 30.6 | 39900
GTVTKTAPSFPQSS [YPL075W 604-617] | 20 | 45.4 | 144 | 63.6 | 25.5 | 135 | 261
GYDEKGNPIPPNNW [YJL216C 137-150] | 0 | 9.3 | 70 | 46.1 | 66.3 | 33.1 | 96
GYNPKTVPFVPISG [YBR118W 180-193] | 13.3 | 37.2 | 39.8 | 25 | 25 | 5.8 | 108
HEASKSFPKAPQAS [YKL105C 877-890] | 27.3 | 26.5 | 0 | 13.4 | 70.5 | 7.4 | 289
HELVKSDPHFPYGT [YDL117W 838-851] | 2.5 | 17 | 37.2 | 29.9 | 11.7 | 32.3 | 229
HEREKALPPIPFTT [YLR425W 196-209] | 158 | 15.2 | 54.9 | 42.8 | 57900 | 1.7 | 215
